This note sets out measurements from US20200181245A1 (University of California, published 2020).

For assay [1], the target named is T1, tau352 (human tau isoform 352, 15N-labelled, His tag removed by TEV cleavage) (human, UniProt P10636-2 2-352).
T1 construct: mature; Uniformly 15N-labelled for NMR
In words: 2D 1H-15N HSQC NMR, about 1:1 molar ratio. The protocol:
The interaction between scFv and tau352 was further studied by NMR spectroscopy. For this purpose, tau352 and 3RT antibody were recombinantly expressed in E. coli and HEK293 cells, respectively. 2D ¹H-¹⁵N heteronuclear single quantum coherence (HSQC) spectra were recorded on tau352 in absence and presence of 3RT antibody (FIG. 10A). The HSQC of tau352 has a narrow chemical shift dispersion indicative of an intrinsically disordered protein (FIG. 10A).
NMR experiments were recorded on a Bruker Avance 800 MHz spectrometer with 5% D₂O as lock solvent at 25° C. The 2D ¹H-¹⁵N HSQC experiments were recorded on a […] ¹⁵N labeled tau352 sample, for the interaction measurement an approximate 1:1 molar ratio between tau352 and scFv was used. For the 2D ¹⁵N HSQC, 512 data points were recorded in the indirect dimension with 128 scans per point for free tau352 and scFv-bound tau352.

Assay [2] deals with T2, His and avidin-tagged 3RTau (352), recombinant full length 3R Tau protein (UniProt P10636-2 2-352, limits assumed).
T2 construct: mature; Used for phage panning, ELISA (immobilized) and immunoblot; The His and avidin tags are not described further; also called 3RT protein; 3-repeat Tau
T2 sequence (P10636 other isoform, or with tags, fused parts or gaps limits assumed): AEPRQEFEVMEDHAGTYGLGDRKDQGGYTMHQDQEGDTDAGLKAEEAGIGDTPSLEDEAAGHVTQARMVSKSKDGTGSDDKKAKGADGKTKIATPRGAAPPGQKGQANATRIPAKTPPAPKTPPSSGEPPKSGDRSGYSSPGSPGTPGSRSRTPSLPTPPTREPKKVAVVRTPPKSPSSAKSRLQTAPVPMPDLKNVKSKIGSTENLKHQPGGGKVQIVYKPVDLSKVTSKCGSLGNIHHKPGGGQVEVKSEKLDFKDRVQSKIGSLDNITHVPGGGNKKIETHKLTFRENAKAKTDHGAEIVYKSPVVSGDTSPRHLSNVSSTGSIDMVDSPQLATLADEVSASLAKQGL
The assay can be described thus: ELISA and immunoblot. On the technique in general: ELISA stands for enzyme-linked immunosorbent assay.

T1 sequence (P10636 other isoform, or with tags, fused parts or gaps): as the sequence (P10636 other isoform, or with tags, fused parts or gaps limits assumed) above

B1: 3RT single chain antibody (Clone 5F10) (scFv)
scFv: MEQVNLRESGAEVKKPGASVKVSCKVSGYTFTGYYMHWVRQAPGQGLEWMGWINSNSGATKYAQKFQGRVTMTRDTSITTAYMELSSLRSDDTAVYYCARGARDGYGFDYWGQGTLVTVLAGGGGSGGGGSGGGGSGAPSYVLTQPPSASGTPGQRVTISCSGGSSNIGSNAVSWYQQLPGTAPKLLIFTNDQRPSGVPDRFSGSKSGTSAPLAISGLQSEDESDYYCATWDDSLNGWVFGGGTKVTVRS
notes: Human scFv from a phage display library; It was expressed from mammalian scFV cassettes; also called 3RT scFV; 3RTau scFV
As for B1, the binding result in assay [1] and in assay [2] was “binds” each time.
